# Laboratory results reported in the DeepSol protein solubility set.
# Experiment: soluble on expression in E. coli; label from the status in PepcDB or PDB records
row,Sequence,soluble on expression in E. coli
1,MGHHHHHHSHMGEIESYCNKELGPLPTKAPTLSKNVLDLFSLKGKVASVTGSSGGIGWAVAEAYAQAGADVAIWYNSHPADEKAEHLQKTYGVHSKAYKCNISDPKSVEETISQQEKDFGTIDVFVANAGVTWTQGPEIDVDNYDSWNKIISVDLNGVYYCSHNIGKIFKKNGKGSLIITSSISGKIVNIPQLQAPYNTAKAACTHLAKSLAIEWAPFARVNTISPGYIDTDITDFASKDMKAKWWQLTPLGREGLTQELVGGYLYLASNASTFTTGSDVVIDGGYTCP,not soluble
2,MNHTLQFPKAPEHLLQALNEVIPKCKLMAQQLPETAISLWLIPPVFPTERLDDDIIRRIWSDTPYWIFCWASGLAMAQWLLAEPHHVKDKVVLDFGAGSGVVAIAAKMAGAKRVICCDIDETSLNACRENALLNNVELEYLNDLYLSESVDILLAADVLYDQSNRFFLDEFLKFAPEVWVADSRVKNFSHPGYIKIDERSATTWPDLDEAKEFRNVSFYKTLEHHHHHH,not soluble
3,GIVMTQTPASQSASLGESVTITCLASQTIGTWLAWYQQKPGKSPQLLIYAATSLADGVPSRFSGSGSGTKFSFKISSLQAEDFVSYYCQQLSSTPYTFGGGTKLEIKRADAAPTVSIFPPSSEQLTSGGASVVCFLNNFYPKDINVKWKIDGKERQNGVLNSWTDQDSKDSTYSMSSTLTLTKDEYERHNSYTCEATHKTSTSPIVKSFNRNE,soluble
4,LDDKTGLGTILNPQATYFDYQATQSGAGSFNYTVKGDNLTATSQIVLAVNAGETPGNNIPVADNITLSTFNNVDAIIDLSAYITDADGDTLRINKLVSASNRFTLNGFQVTFAPDGFVGVDQAVYSVDDGRGGYALAYIVVTSNDANPPAPNTAPVAKDDSLSMDVAKQSVLNINLSGLISDADGDSLKVVTLYSHNDRAVLKENASVDYTPGNFRGVDQFTYLVSDGKGGYDLGTVTVTVGDSTPPTPPTPSLVAYQQAFVLDVDQLQTIDVTQSVTSEHLDAWSLTTVQDSTNLGVVSAKTATTFNYLAQTPGVAQIDYSVQGGSLSANSTITVAINAPVTPDNHRPEAQDTQLETLNNASKTIDLQGKISDVDGDTLSITLHGSARFSLNGTQVTFTPNGFVGLDQAVYSVEDGKGGYALANIVAISEDANPPVPNMAPTANDAQFTLDVAKNVTFNIDLVAQRLIADADGDALSIAHIYTANNRATKQGATGITYTPGAFRGVDQFTYVITDGKDGYAINAITVVVNDSTPANKIPTAGPVTAKMLHNDPAITISVNSAVSDADGDTLKIVSISGALGQASINPANALEMLYEPKGFVGTDRFVYVVSDDNGGYAMGEVTVTVTDSNPTAPVANTVQENTLLDTPINIDLSAYISDKETETANLVISNVTNATSPAVATLSGQTVIYTPNGFTGNDILTYTVTDGRH,not soluble
5,IIEEEQQSLTGRLNIAVLPTIAPYLLPRVFPIWKKELAGLEIHVSEMQTSRCLASLLSGEIDMAIIASKAETEGLEDDLLYYEEFLGYVSRCEPLFEQDVIRTTEVNPHRLWLLDEGHCFRDQLVRFCQMKGLHERQTAYSGGSMEAFMRLVESGQGITFIPQLTVEQLSPSQKELVRPFGMPRPVREVRLAVRQDYSRRKLREQLIGLLRSAVPSDMHKLQTGQHLAHHHH,soluble
6,PYARFQSAMFDKDTLIVSYDAERGEPRGARKKTVNKEEAGLGDCINCAMCVQVCPVGIDIRNGLQYQCIGCAACIDACDEIMDKMGYPRGL,not soluble
7,MGSDKIHHHHHHMAKVVTLTATNGETIQFVEEVKAQGGMKDVMFSPNRDYVVAFLRDPADNETKERLEMITGQYRKRIFNQEGGEYLKKLYCWPTAVVEYNGKLGVVSPFYRDCFFFQYGSRNSDMLGIQGKEKDGKWFASANNRNKFLAPEELGDWMLHLKVCLMLARAVRRMHMAGLSHSDLGYKNCLIDPTTGQACLIDIDGLVVPGKHPPTVVGTPDFIAPEVVATSHLDVKDPNRKLPSRTTDLHALAVLIYMYLLYRHPLRGDKVFDPNDPQRDEELGMGKQALFVEHPTDRSNRIKTENIRPSEHPWKDTEKMPYTLTGTYLSDLFKRAFIDGLHNPQARPTADEWEQALVKTVDLLQPCSNASCEQKWYAFDNSKHPKCPFCGTAHHGKLPVLNLYSGTPDGKFRPDNHRIMVYSNQSLFKWHADNRVFPNEKLRSEDAKRVGYFVQHNGNWWLVNEALPEIYDVKAKQAIPIGGKVKLDDGGQILLQKGIGGRLLMVQMAG,not soluble
8,MSLGYNFHLSDMQAQLEQQAAEEETLKQQFSTKAFQAANLEAYKAQMKEMEESFGALLRQLPSDTEVPGLLEDITRTGLGSGLEFEEIKLLPEVAQQFYIELPIQISVVGGYHDLATFVSGVSSLPRIVTLHDFEIKPVAPGSTSKLRMSILAKTYRYNDKGLKKEGHHHHHH,soluble
9,MSSEWDNKIIPVIGVPLEARKLPSARIPKKPKETDGNSTETVVNSTEKPEERKEKPPKPPKQKQKQKQNLNNKFLKNLITDTGKPASMNGLFVAEEEAKLTLLEKKAMKIHIEENTLSDPQFPTYTTKHQGRIKFKCRLLWLLNKETFMKRANKPHLANIVVKQAHMEAVPPKQNVNQKKQMKNQEKNKNAKPLMDIKFDEKARSFKQRTGEDYNGGFDISSNYQGSEGSGGYQHIGNTWPNTESQWNYDPSTNGYSTFLASTPDTSTTYQPYQPSEYANFSRQLESSSSSVPVYGGATDPTQTSTSSVISFGVAVHEPISESSASAYDDPTRNHWNPQSATSDYSTVPTSGTSNVFPSYQTSEYSSFPNQTPSSSSSYQQSSQYTPMVPDLINQAINGYTTPQYNQPNQQVNQDFNTNQFSASLASLHSQPLEASEDELLRQKRLMEIEQELHMINAKKMHMQMEAEIRHREMELAKRQQLMELRERELRDRECFENGRTHAGHTGQHNYDNREYSSHHESKNPSVGGNYSSTSRSISINEDPAASHYYGQRVERKKRLGGELARRQGRVYEEVSSPGPLKRSADQSRAGSIQPAEGPSRKQRRRNNKNVQVTVNMEDISDDEEV,not soluble
10,MDGGFVRVCLLASGSKGNSLFVESDGTRVLIDAGLSAREIVRRLAVIEVEPADLDGLFISHEHVDHVRGVGVLARKYRLPVHVSYPTHHEVREGFGDAPVVEFESGYSFGFRDLLIDPFPITHDACDPVGFTIESKEGKVGIATDLGTATRLVADKLKRCRVLVLESNHDEEMLMGGPYPWHLKQRIKSRHGHLSNNDSAALLAEVLHPGLEGLFLAHLSEVNNDPAVAKEVAENLLVAQTTCSPRLIVGDQYRPSETLTLLEHHHHHH,soluble
11,MSVMTLKKQTYRVIAVINQGQELLVRAHEPETADIEIIPVTTVVQVTEQNSTGDAAVALDTVTVVGERYVDDIVATLTTLRVGMAVLLQRESGNQYDDNAISVWTLQHAKLGYIARYQNQPYATLMDQGQRLYGIVTVLDQQKQHLELMLWRTTAVPSPIEALQIRQRLAKPRTNLGAVPTHSLQTPLGTIVMMCNGHPIKYQQVPLSPWLTPADELHVTKRYLLTPDWSQVPPDSLITCQVTAKADVVQRWQNEHISAAVLTNASSFYVVGISAQTKTGLNDNLVDDAAQPAVIYRVGQVSAHMQAGFMVSWAPFGDPRVQPALKLALHFSSQPLVPYHPVTPSRTNATFTQQELAALLVSALPNYQGGQRLEPSVTTITVEKLRQTLGDQTYHALANYQRHVQLVAGSTEGVNETLLQALIHAVTYHELTTMHYYQPTVGMVDQVIYPIQLFSTTTKDEDDAQLVGCLALYNYETFEIQQVPLTAIARIAIIADPEHPQTTPETESPDWLRIFLHGWNDDFLEHHHHHH,soluble
12,MGSDKIHHHHHHMALMFPRLARNFVKNGYFPTDEPTLERALNALMPSDGSMCILDPCAGEGVAIAEAAHALGREQVKAFAVEFDAERARHARGLVDHCLHADLMDAMISKQSFGLLWLNPPYGDLSKDVNGNIGYQGQGRARLEKLFYQRSLSLLQYGGVLVFIVPGYVLDAELVGWLTRHYTDLRIYRAVETQFKQVVIFGRRVRQREQAPDGVKAVRNLLLQVGLGEVEAEELPSDWPFLPYIVPASPAEPEHFFRVTMEPEQFADEVGRLQGLWPSLDTHLGAAQQSLRPPARALSHWHLALALAAGAISGVVRSKTGRVLVVKGDTHKDKTLQREFTEREDGSIAETRILTDKFVPVIRAWDMTPSSATRGEVLTIR,not soluble
13,MTTLYSIQEKYQQLLNLAEQLDPEALKDTLESIEDELETKAENVAFVIKELEGQSLILDVEIKRLSERKNTINNNVKRLKQSLHDAMLVANKQKIKTNLFTLDIRKNPHSVFVEDESKLINYLVEQPKKLDKTKLKDDLKKGIDVPGAVLVQTERLQIK,not soluble
14,MHIHILGICGTFMGGVAMLARQLGHKVTGSDANVYPPMSTMLEAQGIEIIEGFDPVQLEPKPDLVVIGNAMSRGNPCVEYVLNHNLRYTSGPQWLQDFLLHDRWVIAVSGTHGKTTTSSMIAWVLEHCGYQPGFLVGGVLGNFGISARLGESMFFVVEADEYDSAFFDKRSKFVHYHPRTLVMNNLEFDHADIFDNLEAIKRQFHHLVRTVPGNGRILAPKQDEALADVLQRGCWSETEFSGEQGEWQAEKITADGSQFHVLLKGERVGQVNWSLVGDHNVSNALMAIAAARHVGVAPELACEALGLFVNTKRRLELKGEINGVTVYDDFAHHPTAIELTLGGLRNKVGDKKIIAVLEPRSATMKLGVHKETLAASLHSADSVYLYQPSNIPWSVEEVAKQCQQPAQVSANMDEFVAMIAKEAQAGDQILVMSNGGFEGIHGKLLAALQQK,not soluble
15,MSQVSTEFIPTRIAILTVSNRRGEEDDTSGHYLRDSAQEAGHHVVDKAIVKENRYAIRAQVSAWIASDDVQVVLITGGTGLTEGDQAPEALLPLFDREVEGFGEVFRMLSFEEIGTSTLQSRAVAGVANKTLIFAMPGSTKACRTAWENIIAPQLDARTRPCNFHPHLKK,soluble
16,MGSDKIHHHHHHMSAGLTGIRVAVIGGDDREIYMIPELQKLGAYIVGVGFEKAAPIQGVTLLSSPLEAVEKADVLLFPMYGTDERGDVKAKYSETPIVLNKELLKAVSPKVPLFIGWARPALKSAAEMLGIQIVETANLDQLAILNSIPSAEGAIQMAMEASPITIHGSESFVLGLGRCGWTLARTLKGMGAHVTGVARKPADLARALEMGLEAVHFADLDEKIGKAELIFNTVPHLILDKVMLEQVNHEAVIIDIASLPGGTDFEYAKAKGIKAMLAPGLPGKVAPKAAGKILAQVYPQLILRHLTTKNASLKF,not soluble
17,GHMVTMSTEPVSASDKYQKISQLEHILKRPDTYIGSVETQEQLQWIYDEETDCMIEKNVTIVPGLFKIFDEILVNAADNKVRDPSMKRIDVNIHAEEHTIEVKNDGKGIPIEIHNKENIYIPEMIFGHLLTSSNYDDDEKKVTGGRNGYGAKLCNIFSTEFILETADLNVGQKYVQKWENNMSICHPPKITSYKKGPSYTKVTFKPDLTRFGMKELDNDILGVMRRRVYDINGSVRDINVYLNGKSLKIRNFKNYVELYLKSLEKKRQLDNGEDGAAKSDIPTILYERINNRWEVAFAVSDISFQQISFVNSIATTMGGTHVNYITDQIVKKISEILKKKKKKSVKSFQIKNNMFIFINCLIENPAFTSQTKEQLTTRVKDFGSRCEIPLEYINKIMKTDLATRMFEIADANEENALK,soluble
18,MDSGYWQSQFEDWLRHHHQEQDAAHDIFHFRRVWATAQTLGENSPVDWLVVLSACYFHDIVSLAKNHPQRHRSSILAAAETRRIFLRDFPDFPAEKLAGICHAIEAHSFSAKIAPTTPEAKIVQDADRLEALGAIGLARVFAVSGALGVALFDADDPFANRRPLNDKQFALDHFQTKLLKLPLTMQTERGKSLAQRNADFLVSYMAKLSAELKGDYETRDDAVIQMFATHQLEHHHHHH,soluble
19,MSEMPAREQMISAYSELVGLDPVSLGDGVAEVRLPMAAHLRNRGGVMHGGALFSLMDVTMGLACSSSHGFDRQSVTLECKINYIRAVADGEVRCVARVLHAGRRSLVVEAEVRQGDKLVAKGQGTFAQL,soluble
20,GQLQEPYETVTIDVEEQHQGPIMEKMGVRKAELTDMAPDGTGRIRMDFIMPSRGLIGFQTEFMTLTSGSGLIYHTFFEYGPHKGGEIGQRKNGVMIGNATGKALTNAIFNLQSRGRMLIGHGVDIYEG,not soluble
